In article PMC5547543:

Key:
Hck (2PA-YEEI) [1] = biological target: Hck (2PA-YEEI) (UniProt P08631)
Hck (2PA-YEEI) [2] = biological target: Hck (2PA-YEEI) (UniProt P08631); assay: SPR; Hck (2PA-YEEI) amine-coupled (EDC/NHS) to a CMD 500 carboxymethyl dextran chip, 6053 RU, BIAcore 2000; Csk, Chk, Chk mutants and chimera as analytes in HBS (10 mM HEPES pH 7.4, 150 mM NaCl, 3.4 mM EDTA, 0.005% Tween 20); global fit to a 1 to 1 model with mass transfer; molecular binding activity from the maximum response

B1: Csk-homologous kinase (Chk), recombinant wild type (enzyme)
chain: MQGHFPAERREGRPRRGTRGQQQLLVSPRFLRAWHPPPVSARMPTRRWAPGTQCITKCEHTRPKPGELAFRKGDVVTILEACENKSWYRVKHHTSGQEGLLAAGALREREALSADPKLSLMPWFHGKISGQEAVQQLQPPEDGLFLVRESARHPGDYVLCVSFGRDVIHYRVLHRDGHLTIDEAVFFCNLMDMVEHYSKDKGAICTKLVRPKRKHGTKSAEEELARAGWLLNLQHLTLGAQIGEGEFGAVLQGEYLGQKVAVKNIKCDVTAQAFLDETAVMTKMQHENLVRLLGVILHQGLYIVMEHVSKGNLVNFLRTRGRALVNTAQLLQFSLHVAEGMEYLESKKLVHRDLAARNILVSEDLVAKVSDFGLAKAERKGLDSSRLPVKWTAPEALKHGKFTSKSDVWSFGVLLWEVFSYGRAPYPKMSLKEVSEAVEKGYRMEPPEGCPGPVHVLMSSCWEAEPARRPPFRKLAEKLARELRSAGAPASVSGQDADGSTSPRSQEP
- inhibition of the kinase activity of Hck (2PA-YEEI) (0.5 μM) on the cdc2 (6-20) peptide after pre-incubation with Chk; more than 60% at 1.5 μM, up to 8.3 μM Chk (Hck (2PA-YEEI) [1]): 80%
- Kd (Hck (2PA-YEEI) [2]): 64 nM
- koff (Hck (2PA-YEEI) [2]): 0.000272 s⁻¹
- kon (Hck (2PA-YEEI) [2]): 4250 M⁻¹ s⁻¹
- molecular binding activity (MBA) at 2.2 μM Chk (Hck (2PA-YEEI) [2]; scale: mol of analyte bound per mol of immobilized Hck): 0.46
